Test results: publication PMC5218393 (PLoS ONE, 2017)
Positions count from the first letter of the chain named. Blank lines part the entries; values can stand above or below the binder they belong to.

How the values were obtained:
H12M35-Fc = H12M35-Fc (Homo sapiens / Mus musculus chimera, UniProt P50895;Q9R069, chimera)
[1] = target: recombinant Lu extracellular domain fused with a 6xHis-Tag (Sol-Lu) (Homo sapiens, UniProt P50895)
[2] = target: T1, recombinant Lu extracellular domain fused with an Fc-Tag (Lu-Fc) (Homo sapiens, UniProt P50895)
T1 sequence (P50895 32-547): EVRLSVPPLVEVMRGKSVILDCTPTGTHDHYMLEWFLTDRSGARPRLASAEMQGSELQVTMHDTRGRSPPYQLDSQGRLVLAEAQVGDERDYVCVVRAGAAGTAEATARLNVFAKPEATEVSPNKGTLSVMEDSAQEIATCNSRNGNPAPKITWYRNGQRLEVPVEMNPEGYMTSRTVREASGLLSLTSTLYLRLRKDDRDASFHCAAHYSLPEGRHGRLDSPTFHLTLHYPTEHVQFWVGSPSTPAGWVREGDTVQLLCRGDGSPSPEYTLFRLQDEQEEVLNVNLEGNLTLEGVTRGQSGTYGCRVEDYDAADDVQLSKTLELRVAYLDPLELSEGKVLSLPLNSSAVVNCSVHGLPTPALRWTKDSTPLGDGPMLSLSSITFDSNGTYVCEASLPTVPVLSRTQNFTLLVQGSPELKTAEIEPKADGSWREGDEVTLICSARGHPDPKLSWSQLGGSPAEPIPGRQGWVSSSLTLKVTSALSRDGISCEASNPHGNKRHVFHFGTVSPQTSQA

[3] = target: T1, recombinant Lu extracellular domain …; assay: SPR; BIAcore T200; Lu-Fc immobilized on a CM5 chip; C7 scFv (6.25, 12.5, 25, 50 and 100 nM) injected in 10 mM HEPES pH 7.4, 150 mM NaCl, 3 mM EDTA, 0.005% Tween 20 at 50 μl/min; nonlinear fitting; conditions: both partners purified

Sequence of H12M35-Fc (Q9R069 other isoform, or with tags, fused parts or gaps chimera): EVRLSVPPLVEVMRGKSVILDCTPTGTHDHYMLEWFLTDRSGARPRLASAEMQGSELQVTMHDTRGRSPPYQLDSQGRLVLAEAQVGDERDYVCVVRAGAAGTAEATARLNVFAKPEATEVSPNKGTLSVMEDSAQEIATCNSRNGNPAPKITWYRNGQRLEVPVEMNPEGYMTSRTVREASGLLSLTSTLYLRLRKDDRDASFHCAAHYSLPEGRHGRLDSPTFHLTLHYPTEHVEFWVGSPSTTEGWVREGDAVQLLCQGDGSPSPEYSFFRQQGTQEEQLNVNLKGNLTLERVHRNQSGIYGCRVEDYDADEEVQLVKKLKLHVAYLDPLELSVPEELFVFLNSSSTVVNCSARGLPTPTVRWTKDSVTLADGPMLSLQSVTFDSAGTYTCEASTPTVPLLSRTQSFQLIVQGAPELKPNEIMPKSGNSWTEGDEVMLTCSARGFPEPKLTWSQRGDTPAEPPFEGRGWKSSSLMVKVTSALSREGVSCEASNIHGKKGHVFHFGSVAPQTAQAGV
Sequence of recombinant Lu extracellular domain fused with a 6xHis-Tag (Sol-Lu) (P50895 32-547): as the sequence (P50895 32-547) above

binding result (H12M35-Fc): binds
binding result [1]: binds
binding result [2]: binds
B1: A1 (antibody, V domains shown)
VH: QVQLVQSGAEVRRPGSSVRISCRTSGGTFNNYALSWVRQAPGQGLEWMGGIIPIVGTAVYAEKFEDSVTVTADESASTAYMEVRSLRSEDTAVYYCATGEKFVSPWFGDLPLHHWGQGTLVTVSS
VL: QSVLTQPPSVSGAPGQRVTISCTGSSSNIGAPYDVHWYQQVPGTAPKLLIYGNTNRPSRVPDRFSGSKSGTSASLAITGLQADDEADYYCQSYDRSLGGSIFGGGTKLTVL

binding result (H12M35-Fc): binds
binding result [1]: binds
binding result [2]: binds
B2: B8 (antibody, V domains shown)
VH: B1 VH with V2M
VL: B1 VL with V41L, R59G, L108V

binding result (H12M35-Fc): binds
binding result [1]: binds
binding result [2]: binds
B3: A4 (antibody, V domains shown)
VH: B1 VH
VL: B1 VL with R59G

Kd [3]: 36.6 nM
koff [3]: 0.0049 s⁻¹
kon [3]: 135000 M⁻¹ s⁻¹
B4: C7 scFv (soluble, purified) (scFv, V domains shown)
VH: B1 VH with V2M, R87G
VL: B1 VL with V41I, R59G
notes: VH of clone C7, as in m3; linker, printed as (Gly4Ser)3; VL of clone C7, as in m3; Single band of 29-30 kDa; monomer by size exclusion chromatography; The 6xHis tag is named in the discussion (6xHis tag antibody); also called the scFv form; the purified C7 scFv; source: E. coli HB2151, periplasmic fraction, purified (His Trap excel)
